# From paper PMC10786891, “Massively parallel profiling of RNA-targeting CRISPR-Cas13d”
# Numbering of substitutions follows the chain as printed. Numbers in names are those of the source.
# T1: EsCas13d, nuclease-dead (Eubacterium siraeum, UniProt B0MS50, R295A;H300A;R849A;H854A)
# T1 sequence: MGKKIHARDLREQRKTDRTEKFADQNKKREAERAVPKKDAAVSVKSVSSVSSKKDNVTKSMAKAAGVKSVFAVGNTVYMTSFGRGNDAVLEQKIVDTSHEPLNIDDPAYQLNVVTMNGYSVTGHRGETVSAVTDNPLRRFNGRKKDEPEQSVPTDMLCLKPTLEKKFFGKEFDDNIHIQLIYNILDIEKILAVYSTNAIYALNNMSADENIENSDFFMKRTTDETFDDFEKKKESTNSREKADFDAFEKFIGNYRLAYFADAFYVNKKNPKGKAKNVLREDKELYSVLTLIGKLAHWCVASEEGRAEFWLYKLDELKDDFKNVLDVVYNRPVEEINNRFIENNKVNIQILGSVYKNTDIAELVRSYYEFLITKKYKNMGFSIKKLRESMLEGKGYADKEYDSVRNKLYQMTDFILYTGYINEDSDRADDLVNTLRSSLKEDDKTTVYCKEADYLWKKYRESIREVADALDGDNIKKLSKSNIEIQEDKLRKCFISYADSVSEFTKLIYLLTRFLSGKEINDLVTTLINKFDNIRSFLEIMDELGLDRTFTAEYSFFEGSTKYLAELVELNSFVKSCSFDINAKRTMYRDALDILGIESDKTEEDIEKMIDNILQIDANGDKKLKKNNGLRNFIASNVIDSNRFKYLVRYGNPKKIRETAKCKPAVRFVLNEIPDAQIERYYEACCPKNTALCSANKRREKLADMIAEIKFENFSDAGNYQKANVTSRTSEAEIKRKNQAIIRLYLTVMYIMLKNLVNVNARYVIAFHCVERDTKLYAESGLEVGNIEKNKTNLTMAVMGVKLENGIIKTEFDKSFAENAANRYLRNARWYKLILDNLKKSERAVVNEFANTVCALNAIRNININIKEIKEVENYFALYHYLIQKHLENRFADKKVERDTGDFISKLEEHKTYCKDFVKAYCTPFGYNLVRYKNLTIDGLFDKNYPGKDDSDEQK
# B1: target 1 insU 3' of 18,insU 3' of 6 (mixed)
# RNA 1: CACCCGUGCAAAAAUGCAGGGGUCUAAAACUGAGCGGAUAACCUCUCUAUGG
# RNA 2: GGGAAUGGAUCCACAUCUACGAAUUCGUACCAUAUGAGAGGUUAUCCUGCUCACCGAGAUCGGAAGAGCACACGU
# B2: target 1 C7U,U11A (mixed)
# RNA 1: B1 RNA 1
# RNA 2: GGGAAUGGAUCCACAUCUACGAAUUCGUACCAUAGAGAGGAUAUUCGCUCACCGAGAUCGGAAGAGCACACGU
# B3: target 1 C4U,G13C (mixed)
# RNA 1: B1 RNA 1
# RNA 2: B2 RNA 2 with G39C, A41U, U45C, C48U
# B4: target 1 insC 3' of 11,insC 3' of 1 (mixed)
# RNA 1: B1 RNA 1
# RNA 2: GGGAAUGGAUCCACAUCUACGAAUUCGUACCAUAGAGAGGUCUAUCCGCUCACCCGAGAUCGGAAGAGCACACGU
# B5: target 1 insC 3' of 11,insC 3' of 11 (mixed)
# RNA 1: B1 RNA 1
# RNA 2: GGGAAUGGAUCCACAUCUACGAAUUCGUACCAUAGAGAGGUCCUAUCCGCUCACCGAGAUCGGAAGAGCACACGU
# B6: target 1 insU 3' of 9,insC 3' of 5 (mixed)
# RNA 1: B1 RNA 1
# RNA 2: B5 RNA 2 with C42U, C43A, A45U, U46C, C48G, G49C
# B7: target 1 A1U,G5C (mixed)
# RNA 1: B1 RNA 1
# RNA 2: B2 RNA 2 with A41U, U45C, G47C, A51U
# B8: target 1 insC 3' of 9,insU 3' of 5 (mixed)
# RNA 1: B1 RNA 1
# RNA 2: B5 RNA 2 with C42U, C43A, U44C, A45U, U46C, C48G, G49U
# B9: target 1 C2G,A9G (mixed)
# RNA 1: B1 RNA 1
# RNA 2: B2 RNA 2 with A41U, A43G, U45C, C50G
# B10: target 1 G12A,C22A (mixed)
# RNA 1: B1 RNA 1
# RNA 2: B2 RNA 2 with C30A, G40A, A41U, U45C
# B11: target 1 A9G,A14G (mixed)
# RNA 1: B1 RNA 1
# RNA 2: B2 RNA 2 with A38G, A41U, A43G, U45C
# B12: target 1 del5,del8 (mixed)
# RNA 1: B1 RNA 1
# RNA 2: GGGAAUGGAUCCACAUCUACGAAUUCGUACCAUAGAGAGGUUACCCUCACCGAGAUCGGAAGAGCACACGU
# B13: target 1 U10A,A20C (mixed)
# RNA 1: B1 RNA 1
# RNA 2: B2 RNA 2 with A32C, A41U, U42A, U45C
# B14: target 1 C2U,C7U (mixed)
# RNA 1: B1 RNA 1
# RNA 2: B2 RNA 2 with A41U, C50U
# B15: target 1 A9C,A14G (mixed)
# RNA 1: B1 RNA 1
# RNA 2: B2 RNA 2 with A38G, A41U, A43C, U45C
# B16: target 1 insC 3' of 20,insU 3' of 4 (mixed)
# RNA 1: B1 RNA 1
# RNA 2: B1 RNA 2 with U33C, A34U, U35A, U48G, G49C, C50U
# B17: target 1 C7A,A14C (mixed)
# RNA 1: B1 RNA 1
# RNA 2: B2 RNA 2 with A38C, A41U, U45A
# B18: target 1 insC 3' of 11,insG 3' of 1 (mixed)
# RNA 1: B1 RNA 1
# RNA 2: B4 RNA 2 with C53G
# B19: target 1 U3A,C21A (mixed)
# RNA 1: B1 RNA 1
# RNA 2: B2 RNA 2 with C31A, A41U, U45C, U49A
# B20: target 1 insC 3' of 8,insC 3' of 8 (mixed)
# RNA 1: B1 RNA 1
# RNA 2: B5 RNA 2 with C42U, C43A, A45C, U46C
# B21: target 1 insA 3' of 10,insA 3' of 5 (mixed)
# RNA 1: B1 RNA 1
# RNA 2: B5 RNA 2 with C42U, C43A, U44A, A45U, U46C, C48G, G49A
# B22: target 1 insG 3' of 19,insA 3' of 17 (mixed)
# RNA 1: B1 RNA 1
# RNA 2: B5 RNA 2 with A34G, G35A, A36G, G37A, G40A, U41G, C42G, C43U
# B23: target 1 A9G,A20C (mixed)
# RNA 1: B1 RNA 1
# RNA 2: B2 RNA 2 with A32C, A41U, A43G, U45C
# B24: target 1 insG 3' of 14,insA 3' of 10 (mixed)
# RNA 1: B1 RNA 1
# RNA 2: B5 RNA 2 with U41G, C42U, C43U, U44A
# B25: target 1 U8G,G12A (mixed)
# RNA 1: B1 RNA 1
# RNA 2: B2 RNA 2 with G40A, A41U, U44G, U45C
# B26: target 1 complement block 1-6 (mixed)
# RNA 1: B1 RNA 1
# RNA 2: B2 RNA 2 with A41U, U45C, C46G, G47C, C48G, U49A, C50G, A51U
# B27: target 1 C7U,A9G (mixed)
# RNA 1: B1 RNA 1
# RNA 2: B2 RNA 2 with A41U, A43G
# B28: target 1 insG 3' of 22,insG 3' of 8 (mixed)
# RNA 1: B1 RNA 1
# RNA 2: B1 RNA 2 with C31G, A32C, U33A, A34U, U35A, C46G, U48C
# B29: target 1 G5U,A9G (mixed)
# RNA 1: B1 RNA 1
# RNA 2: B2 RNA 2 with A41U, A43G, U45C, G47U
# B30: target 1 insC 3' of 17,insA 3' of 6 (mixed)
# RNA 1: B1 RNA 1
# RNA 2: B1 RNA 2 with U35G, G36C, U48A
# B31: target 1 G12U,A20C (mixed)
# RNA 1: B1 RNA 1
# RNA 2: B2 RNA 2 with A32C, G40U, A41U, U45C
# B32: target 1 insC 3' of 18,insG 3' of 14 (mixed)
# RNA 1: B1 RNA 1
# RNA 2: B1 RNA 2 with U35C, U42G, A44U, U45A, C46U, U48C
# B33: target 1 C2G,G5U (mixed)
# RNA 1: B1 RNA 1
# RNA 2: B2 RNA 2 with A41U, U45C, G47U, C50G
# B34: target 1 U19C,C21A (mixed)
# RNA 1: B1 RNA 1
# RNA 2: B2 RNA 2 with C31A, U33C, A41U, U45C
# B35: target 1 insC 3' of 12,insA 3' of 12 (mixed)
# RNA 1: B1 RNA 1
# RNA 2: B5 RNA 2 with U41C, C42A, C43U
# Target: T1, EsCas13d, nuclease-dead
# Assay: crRNA (strand 1, pre-loaded); Mg2+; 40 mM Tris-HCl pH 7.5, 150 mM NaCl, 6 mM MgCl2, 1 mM DTT, 0.1% Tween-20, 0.2 mg/ml BSA; 25 C; 10 min per concentration, then washed
# Conditions: tags: His6-TwinStrep-SUMO cleaved; N-terminal SNAP kept (SNAP-Surface 488); label: 3' end held by stalled T7 RNA polymerase
row,Binder,Kd
1,B1,40.4 ± 2.6 nM
2,B2,32.7 ± 2.9 nM
3,B3,50 ± 10 nM
4,B4,26.2 ± 1.7 nM
5,B5,35 ± 7 nM
6,B6,12.9 ± 1.3 nM
7,B7,8.9 ± 0.5 nM
8,B8,7.39 ± 0.32 nM
9,B9,9.1 ± 0.4 nM
10,B10,13 ± 0.9 nM
11,B11,14.4 ± 0.7 nM
12,B12,18 ± 0.8 nM
13,B13,48 ± 4 nM
14,B14,6.5 ± 0.27 nM
15,B15,29.5 ± 2.4 nM
16,B16,9.1 ± 0.5 nM
17,B17,34 ± 4 nM
18,B18,35 ± 9 nM

row,Binder,Kd
1,B19,~90 nM
2,B20,14.5 ± 0.7 nM
3,B21,5.79 ± 0.32 nM
4,B22,73 ± 12 nM
5,B23,54 ± 15 nM
6,B24,30.3 ± 2.3 nM
7,B25,12.9 ± 1.4 nM
8,B26,6.14 ± 0.25 nM
9,B27,15.7 ± 1.1 nM
10,B28,68 ± 7 nM
11,B29,27.2 ± 1.8 nM
12,B30,44 ± 5 nM
13,B31,74 ± 32 nM
14,B32,47.4 ± 3 nM
15,B33,22.1 ± 1.4 nM
16,B34,37 ± 5 nM
17,B35,14.7 ± 1.5 nM
